Data set [1] deals with T1, YTHDF3 (UniProt Q7Z739 1-585).
T1 sequence: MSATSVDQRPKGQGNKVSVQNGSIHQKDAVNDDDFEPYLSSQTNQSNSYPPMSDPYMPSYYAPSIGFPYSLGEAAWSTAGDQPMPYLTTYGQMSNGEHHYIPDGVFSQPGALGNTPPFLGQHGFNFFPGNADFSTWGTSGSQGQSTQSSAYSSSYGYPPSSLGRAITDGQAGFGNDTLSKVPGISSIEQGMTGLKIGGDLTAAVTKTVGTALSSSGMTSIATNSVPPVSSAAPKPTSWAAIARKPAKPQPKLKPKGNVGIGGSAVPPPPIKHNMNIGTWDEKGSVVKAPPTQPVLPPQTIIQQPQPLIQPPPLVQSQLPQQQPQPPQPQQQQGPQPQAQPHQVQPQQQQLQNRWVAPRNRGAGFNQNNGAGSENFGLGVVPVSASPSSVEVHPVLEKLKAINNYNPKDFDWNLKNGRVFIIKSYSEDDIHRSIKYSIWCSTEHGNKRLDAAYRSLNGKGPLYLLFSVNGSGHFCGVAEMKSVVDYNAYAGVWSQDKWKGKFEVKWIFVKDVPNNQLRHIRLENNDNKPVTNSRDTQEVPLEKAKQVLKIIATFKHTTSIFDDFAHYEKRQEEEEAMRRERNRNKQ
Put plainly: EMSA; REMSA: 6.25 nM biotin probe, 100 mM HEPES pH 7.3, 200 mM KCl, 10 mM MgCl2, 10 mM DTT, 5% glycerol, 2 ug tRNA, 20 ul, 30 min, temperature not stated; 6% native PAGE in 0.5x TBE. As to conditions: protein: recombinant; tags: His-tag (pET-28a(+)-TEV); label: biotin. Background: A gel shift assay detects complexes by their altered migration in electrophoresis.

Data set [2] has as its target G3BP1 (UniProt Q13283 1-466). The description is as above. The conditions noted are these: protein: recombinant; tags: His-tag (pET-28a(+)-TEV); chain copies: 2; label: biotin.

Experimental findings from PMC8789049, “Regulation of AR mRNA translation in response to acute AR pathway inhibition” are described below.

Chain of G3BP1 (Q13283 whole entry): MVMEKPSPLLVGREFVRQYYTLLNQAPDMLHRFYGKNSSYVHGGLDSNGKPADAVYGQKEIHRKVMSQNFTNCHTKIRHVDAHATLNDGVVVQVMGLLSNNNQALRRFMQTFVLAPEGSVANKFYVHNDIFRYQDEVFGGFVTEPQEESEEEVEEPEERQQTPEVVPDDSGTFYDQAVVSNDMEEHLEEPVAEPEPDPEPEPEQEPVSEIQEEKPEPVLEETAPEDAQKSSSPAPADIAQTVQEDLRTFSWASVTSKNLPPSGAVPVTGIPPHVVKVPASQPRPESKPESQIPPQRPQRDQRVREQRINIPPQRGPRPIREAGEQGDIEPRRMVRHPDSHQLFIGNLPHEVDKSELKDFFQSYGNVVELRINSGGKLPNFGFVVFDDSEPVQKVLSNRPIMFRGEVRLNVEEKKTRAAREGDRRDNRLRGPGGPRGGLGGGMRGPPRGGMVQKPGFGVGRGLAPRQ

B1: 6908-UM (ssRNA)
RNA: CCUGUGAGGGACUGGCCACUCAGACCCACU
With B1, the binding result in data set [1] is “no binding”; in data set [2] it was “binds”.

B2: 8953-UM (ssRNA)
RNA: AACUCAAUGGAACUGACUGAGAUUUACCAC
Turning to B2, the binding result in data set [1] was “no binding”; in data set [2], “binds”.

B3: 7301-m6A (ssRNA)
RNA: GGAUAUUUUGAAGGACUGUCAUAUAUCUUU
modifications: m6A in GGm6ACU
Take B3: the binding result in data set [1] is “binds”.

B4: 6908-m6A (ssRNA)
RNA: CCUGUGAGGGACUGGCCACUCAGACCCACU
modifications: m6A in GGm6ACU
For the molecule B4, the binding result in data set [1] is listed as “binds”.

B5: 8953-m6A (ssRNA)
RNA: AACUCAAUGGAACUGACUGAGAUUUACCAC
modifications: m6A in GAm6ACU
Take B5: in data set [1], the binding result is given as “binds”.

B6: 7301-UM (ssRNA)
RNA: GGAUAUUUUGAAGGACUGUCAUAUAUCUUU
As to B6, the figures for the binding result in data set [1] and in data set [2] were “no binding” and “binds”, respectively.
